Assay results reported in patent publication US20030167487A1 (Takeda / Millennium, published 2003).

Columns and labels:
human vWf [1] = target: T1, human vWf (human, UniProt P04275 764-2813); test: flow cytometry, FITC-vWf on mouse platelets in PRP stimulated with ADP and epinephrine (no botrocetin)
T1 construct: Plasma-type multimeric protein; It was coated on plates (25-500 ng/well) in the adhesion assay and FITC-labeled (F/P ratio 1-4) in the flow cytometry assay; also called FITC˜vWf

human vWf [2] = target: T1, human vWf; test: platelet adhesion to vWf-coated 96-well plates (25-500 ng/well) with botrocetin 4 µM; bound platelets read by acid phosphatase activity
Method: 96-well plates were coated with various concentrations (25-500 ng/well) of human vWf overnight at 4° C. Pooled WP from mice were resuspended in Mg²⁺-free CFTH buffer (1.2×10⁸/mL) containing botrocetin (4 μM), and incubated immobilized human vWf for 1 hour at room temp. Following two PBS washes, bound platelets were lysed and intracellular acid phosphatase activity was quantitated calorimetrically using the substrate pNPP (Sigma).

B1: mouse αIIbβ3 on platelets (receptor)
chain 1: LNLDSEKFSVYAGPNGSHFGFSVDFHKDKHGSVSIVVGAPRALNASQEETGAVFLCPWKANGGKCNPLLFDLRDETRNLGFQIFQTFKTGQGLGASVVSWNDVIVACAPWQHWNVLEKRDEAEKTPVGGCFLAQLQSGGRAEYSPCRANTMSSVYAESFRGDKRYCEAGFSLAVTQAGELVLGAPGGYFFLGLLARVPIENIISSYRPGTLLWHVSNQRFTYDNSNPVFFDGYRGYSVAVGEFDGDPSTTEYVSGAPTWSWTLGAVEILDSYYQPLHRLHGEQMASYFGHSVAVTDVNGDGRHDLLVGAPLYMESRADRKLAEVGRVYLFLQPKGPQALSTPTLLLTGTQLYGRFGSAIAPLGDLNRDGYNDIAVAAPYGGPSGQGQVLIFLGQSEGLSPRPSQVLDSPFPTGSGFGFSLRGAVDIDDNGYPDLIVGAYGASKVAVYRAQPVVMATVQLMVQDSLNPTLKNCVLDQTKTPVSCFNIQMCVGATGHNIPQKLHLKAELQLDLQKPRQGRRVLLLASQQASLTLSLDLGGRDKPICHTTGAFLRDEADFRDKLSPIVLSLNVSLPPEETGGAPAVVLHGETHVQEQTRIILDCGEDDLCVPQLRLTATAGDSPLLIGADNVLELKIEAANDGEGAYEAELAVHLPPGAHYMRALSNIEGFERLVCTQKKENESRVALCELGNPMKKDTRIGITMLVSVENLEEAGESVSFQLQVRSKNSQNPNSKVVMLPVAIQAEATVELRGNSFPASLVVAAEEGDREQEDLDRWVSRLEHTYELHNIGPGTVNGLRLLIHIPGQSQPSDLLYILDVQPQGGLLCSTQPSPKVDWKLSTPSPSSIRPVHHQRERRQAFLQGPKPGQQDPVLVSCDGSASCTVVECELREMVRGQRAMVTVQVMLGLSSLRQRPQEQFVLQSHAWFNVSSLPYSVPVVSLPSGQARVQTQLLRALEERAIPVWWVLVGVLGGLLLLTLLVLAMWKAGFFKRNRPPLEEDEEEE
chain 2: ESNICTTRGVNSCQQCLAVSPVCAWCSDETLSQGSPRCNLKENLLKDNCAPESIEFPVSEAQILEARPLSSKGSGSSAQITQVSPQRIALRLRPDDSKIFSLQVRQVEDYPVDIYYLMDLSFSMKDDLSSIQTLGTKLASQMRKLTSNLRIGFGAFVDKPVSPYMYISPPQAIKNPCYNMKNACLPMFGYKHVLTLTDQVSRFNEEVKKQSVSRNRDAPEGGFDAIMQATVCDEKIGWRNDASHLLVFTTDAKTHIALDGRLAGIVLPNDGHCHIGTDNHYSASTTMDYPSLGLMTEKLSQKNINLIFAVTENVVSLYQNYSELIPGTTVGVLSDDSSNVLQLIVDAYGKIRSKVELEVRDLPEELSLSFNATCLNNEVIPGLKSCVGLKIGDTVSFSIEAKVRGCPQEKEQSFTIKPVGFKDSLTVQVTFDCDCACQAFAQPSSPRCNNGNGTFECGVCRCDQGWLGSMCECSEEDYRPSQQEECSPKEGQPICSQRGECLCGQCVCHSSDFGKITGKYCECDDFSCVRYKGEMCSGHGQCNCGDCVCDSDWTGYYCNCTTRTDTCMSTNGLLCSGRGNCECGSCVCVQPGSYGDTCEKCPTCPDACSFKKECVECKKFNRGTLHEENTCSRYCRDDIEQVKELTDTGKNAVNCTYKNEDDCVVRFQYYEDTSGRAVLYVVEEPECPKGPDILVVLLSVMGAILLIGLATLLIWKLLITIHDRKEFAKFEEERARAKWDTANNPLYKEATSTFTNITYRGT
notes: whole, on cells; Native receptor on washed mouse platelets of GP V wt, +/- and -/- genotype; also called mouse fibrinogen receptor; GPIIb-IIIa
- binding result (human vWf [1]): no binding

B2: mouse GP Ib on platelets (receptor)
chain 1: QHTCSISKVTSLLEVNCENKKLTALPADLPADTGILHLGENQLGTFSTASLVHFTHLTYLYLDRCELTSLQTNGKLIKLENLDLSHNNLKSLPSLGWALPALTTLDVSFNKLGSLSPGVLDGLSQLQELYLQNNDLKSLPPGLLLPTTKLKKLNLANNKLRELPSGLLDGLEDLDTLYLQRNWLRTIPKGFFGTLLLPFVFLHANSWYCDCEILYFRHWLQENANNVYLWKQGVDVKDTTPNVASVRCANLDNAPVYSYPGKGCPTSSGDTDYDDYDDIPDVPATRTEVKFSTNTKVHTTHWSLLAAAPSTSQDSQMISLPPTHKPTKKQSTFIHTQSPGFTTLPETMESNPTFYSLKLNTVLIPSPTTLEPTSTQATPEPNIQPMLTTSTLTTPEHSTTPVPTTTILTTPEHSTIPVPTTAILTTPKPSTIPVPTTATLTTLEPSTTPVPTTATLTTPEPSTTLVPTTATLTTPEHSTTPVPTTATLTTPEHSTTPVPTTATLTTPEPSTTLTNLVSTISPVLTTTLTTPESTPIETILEQFFTTELTLLPTLESTTTIIPEQNSFLNLPEVALVSSDTSESSPFLNSDFCCFLPLGFYVLGLLWLLFASVVLILLLTWTWHVTPHSLDMEQSAALATSTHTTSLEVQRARQVTMPRAWLLFLQGSLPTFRSSLFLWVRPNGRVGPLVAGRRPSALSQGRGQDLLGTVGIRYSGHSL
chain 2: PAPCSCAGTLVDCGRRGLTWASLPAAFPPDTTELVLTGNNLTALPPGLLDALPALRAAHLGANPWRCDCRLLPLRAWLAGRPERAPYRDLRCVAPPALRGRLLPYVAEDELRAACAPGLLCWGALVAQLALLVLGLLHALLLALLLGRLRRLRARARARSIQEFSLTAPLVAESARGGAS
notes: whole, on cells; Native receptor on mouse platelets of GP V wt, +/- and -/- genotype, present there in complex with GP IX (and with GP V in wt); also called GP Ib-IX (complex on platelets)
- binding result (human vWf [2]): binds
